Source: US20140087995A1 (published 2014)
Numbered stars: 1 amine (or outer) side, 2 acyl side, 3 side chain; on linkers, the order of the positions; unused ones are H or OH. Bridge positions count the residues as written; N and C are the ends. * marks the point of attachment. C20 diacid = O=C(O)CCCCCCCCCCCCCCCCCCC(=O)*; γGlu = O=C(O)[C@H](CCC(=O)[*:2])N[*:1]

T1: human calcitonin receptor (human, UniProt P30988 25-474)
T1 construct: whole, on cells; Assay used cell membranes, not intact cells; also called hCTR; hCT
T1 sequence (looked up): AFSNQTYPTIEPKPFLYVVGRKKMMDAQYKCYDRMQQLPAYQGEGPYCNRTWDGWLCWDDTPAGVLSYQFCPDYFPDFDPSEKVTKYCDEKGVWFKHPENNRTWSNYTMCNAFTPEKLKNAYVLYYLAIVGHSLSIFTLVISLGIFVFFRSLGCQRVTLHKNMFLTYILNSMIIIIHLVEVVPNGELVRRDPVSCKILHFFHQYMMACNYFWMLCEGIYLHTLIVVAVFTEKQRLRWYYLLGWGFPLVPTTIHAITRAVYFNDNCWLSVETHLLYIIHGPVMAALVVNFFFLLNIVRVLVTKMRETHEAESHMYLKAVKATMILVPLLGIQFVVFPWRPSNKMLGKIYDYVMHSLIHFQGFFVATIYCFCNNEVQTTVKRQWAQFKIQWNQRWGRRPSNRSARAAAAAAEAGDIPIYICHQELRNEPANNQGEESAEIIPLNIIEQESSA

T2: human amylin receptor (amylin 3(a) receptor: human calcitonin receptor with RAMP-3) (human, UniProt P30988 25-474; O60896 24-148)
T2 construct: whole, on cells; Assay used cell membranes of the Amylin 3(a)/CRE-luc BHK cells, not intact cells; also called hAmylin-R; hAmylinR
T2 sequence (looked up) 1: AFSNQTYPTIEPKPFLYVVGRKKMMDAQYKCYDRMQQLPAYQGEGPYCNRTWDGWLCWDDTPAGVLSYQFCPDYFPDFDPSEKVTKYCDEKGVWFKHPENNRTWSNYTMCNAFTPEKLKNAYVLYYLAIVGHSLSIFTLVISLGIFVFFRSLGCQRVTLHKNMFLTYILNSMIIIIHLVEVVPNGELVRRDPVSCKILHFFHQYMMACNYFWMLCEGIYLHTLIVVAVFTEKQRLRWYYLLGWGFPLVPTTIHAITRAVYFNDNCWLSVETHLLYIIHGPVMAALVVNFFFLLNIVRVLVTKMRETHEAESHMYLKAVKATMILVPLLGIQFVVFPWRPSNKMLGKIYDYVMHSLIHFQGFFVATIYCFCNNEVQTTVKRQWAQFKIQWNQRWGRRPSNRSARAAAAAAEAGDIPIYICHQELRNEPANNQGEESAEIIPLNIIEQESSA
T2 sequence (looked up) 2: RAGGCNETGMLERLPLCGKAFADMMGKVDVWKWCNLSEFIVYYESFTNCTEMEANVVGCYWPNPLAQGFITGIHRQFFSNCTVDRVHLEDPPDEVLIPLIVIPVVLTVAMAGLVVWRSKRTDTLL


Tests used:
[1] = target: T1, human calcitonin receptor; experiment: ratio IC50 hCTR / IC50 hAmylin-R (reference: human amylin receptor), SPA competition assays
Outline: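 Membranes (35 ng/μL final) + SPA beads, 50 mM Hepes pH 7.4 buffer with 1 mM CaCl2, 5 mM MgCl₂, 0.1% OA, 0.02% Tween20; 120 min, 25° C, shaking; centrifuged, counted; IC₅₀ by one-site binding competition.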

[2] = target: T1, human calcitonin receptor; experiment: SPA competition with 125I-calcitonin on membranes of BHK cells with human calcitonin receptor (Assay VII)
Outline: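 BHK hCTR membranes 35 ng/μL + SPA beads 0.05 mg/well; buffer 50 mM Hepes pH 7.4, 1 mM CaCl2, 5 mM MgCl₂, 0.1% OA, 0.02% Tween20. 120 min, 25° C., shaking. Scintillation count; IC50 by one-site binding competition.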

[3] = target: T2, human amylin receptor (amylin 3(a) …); experiment: SPA competition with 125I-rat amylin on membranes of BHK cells with human calcitonin receptor and RAMP-3 (Assay V)
Outline: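 SPA beads + BHK amylin 3(a)/CRE-luc membranes, 35 ng/μL final; buffer 50 mM Hepes pH 7.4, 1 mM CaCl2, 5 mM MgCl₂, 0.1% OA, 0.02% Tween20. 120 min, 25° C, shaken; scintillation count. IC₅₀ by one-site binding competition fit, taken as receptor affinity.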

Ratio hCT/hAmylin binding [1] | IC50 [2] | IC50 [3] | Binder
65.3 | 66.3 nM | 1.01 nM | {C20 diacid-γGlu}-GRCNTATCATQRLAHFLRHSSPNFGAIPSSTNVGHNTY-NH2 (disulfide 3-8; SMILES CC[C@H](C)[C@H](NC(=O)[C@H](C)NC(=O)CNC(=O)[C@H](Cc1ccccc1)NC(=O)[C@H](CC(N)=O)NC(=O)[C@@H]1CCCN1C(=O)[C@H](CO)NC(=O)[C@H](CO)NC(=O)[C@H](Cc1c[nH]cn1)NC(=O)[C@H](CCCNC(=N)N)NC(=O)[C@H](CC(C)C)NC(=O)[C@H](Cc1ccccc1)NC(=O)[C@H](Cc1c[nH]cn1)NC(=O)[C@H](C)NC(=O)[C@H](CC(C)C)NC(=O)[C@H](CCCNC(=N)N)NC(=O)[C@H](CCC(N)=O)NC(=O)[C@@H](NC(=O)[C@H](C)NC(=O)[C@@H]1CSSC[C@H](NC(=O)[C@H](CCCNC(=N)N)NC(=O)CNC(=O)CC[C@H](NC(=O)CCCCCCCCCCCCCCCCCCC(=O)O)C(=O)O)C(=O)N[C@@H](CC(N)=O)C(=O)N[C@@H]([C@@H](C)O)C(=O)N[C@@H](C)C(=O)N[C@@H]([C@@H](C)O)C(=O)N1)[C@@H](C)O)C(=O)N1CCC[C@H]1C(=O)N[C@@H](CO)C(=O)N[C@@H](CO)C(=O)N[C@H](C(=O)N[C@@H](CC(N)=O)C(=O)N[C@H](C(=O)NCC(=O)N[C@@H](Cc1c[nH]cn1)C(=O)N[C@@H](CC(N)=O)C(=O)N[C@H](C(=O)N[C@@H](Cc1ccc(O)cc1)C(N)=O)[C@@H](C)O)C(C)C)[C@@H](C)O, also called compound 100)
26.5 | 3 nM | 0.114 nM | {C20 diacid-γGlu}-GRCNTATCATQRLAAFLRHSSPNFGAIPSSTNVGPNTY-NH2 (disulfide 3-8)
68.6 | 29.2 nM | 0.426 nM | {C20 diacid-γGlu}-GRCNTATCATQRLAAFLRHSSPNFGAIPSSTNVGHNTY-NH2 (disulfide 3-8; SMILES CC[C@H](C)[C@H](NC(=O)[C@H](C)NC(=O)CNC(=O)[C@H](Cc1ccccc1)NC(=O)[C@H](CC(N)=O)NC(=O)[C@@H]1CCCN1C(=O)[C@H](CO)NC(=O)[C@H](CO)NC(=O)[C@H](Cc1c[nH]cn1)NC(=O)[C@H](CCCNC(=N)N)NC(=O)[C@H](CC(C)C)NC(=O)[C@H](Cc1ccccc1)NC(=O)[C@H](C)NC(=O)[C@H](C)NC(=O)[C@H](CC(C)C)NC(=O)[C@H](CCCNC(=N)N)NC(=O)[C@H](CCC(N)=O)NC(=O)[C@@H](NC(=O)[C@H](C)NC(=O)[C@@H]1CSSC[C@H](NC(=O)[C@H](CCCNC(=N)N)NC(=O)CNC(=O)CC[C@H](NC(=O)CCCCCCCCCCCCCCCCCCC(=O)O)C(=O)O)C(=O)N[C@@H](CC(N)=O)C(=O)N[C@@H]([C@@H](C)O)C(=O)N[C@@H](C)C(=O)N[C@@H]([C@@H](C)O)C(=O)N1)[C@@H](C)O)C(=O)N1CCC[C@H]1C(=O)N[C@@H](CO)C(=O)N[C@@H](CO)C(=O)N[C@H](C(=O)N[C@@H](CC(N)=O)C(=O)N[C@H](C(=O)NCC(=O)N[C@@H](Cc1c[nH]cn1)C(=O)N[C@@H](CC(N)=O)C(=O)N[C@H](C(=O)N[C@@H](Cc1ccc(O)cc1)C(N)=O)[C@@H](C)O)C(C)C)[C@@H](C)O)
